Earlier results, collected in PMC4628734.

Target: Cdc25C (Homo sapiens) (UniProt P30307)
UniProt P30307, sequence (P30307 whole entry, looked up): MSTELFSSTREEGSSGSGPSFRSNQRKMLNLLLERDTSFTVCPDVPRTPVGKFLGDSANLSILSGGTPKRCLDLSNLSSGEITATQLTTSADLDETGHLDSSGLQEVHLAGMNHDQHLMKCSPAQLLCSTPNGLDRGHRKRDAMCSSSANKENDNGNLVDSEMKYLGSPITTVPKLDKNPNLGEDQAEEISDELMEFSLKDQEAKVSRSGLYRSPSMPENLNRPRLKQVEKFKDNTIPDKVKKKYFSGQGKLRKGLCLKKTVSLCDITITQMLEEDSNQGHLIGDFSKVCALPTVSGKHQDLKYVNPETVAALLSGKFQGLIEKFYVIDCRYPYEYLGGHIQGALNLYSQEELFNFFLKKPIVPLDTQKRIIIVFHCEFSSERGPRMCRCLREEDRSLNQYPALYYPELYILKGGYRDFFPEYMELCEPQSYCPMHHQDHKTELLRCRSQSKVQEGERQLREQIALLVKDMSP

Kd: 1800 nM
Substance: PLK-1 PBD (from UniProt P53350)
